Legend:
[1] = target: HPV 16 E7(11-19) peptide in the context of HLA-A02:01 on target cells (human; HPV 16); test: cell-based or functional assay
[2] = target: HPV 16 E6(29-38) peptide in the context of HLA-A02:01 on target cells (human; HPV 16); test: cell-based or functional assay
[3] = target: T1, HLA-A2/E6 (29-38) tetramer (human; HPV 16); test: tetramer flow cytometry; transfected Jurkat-derived cells, CD8+ population
T1 construct: also called E6(29-38) peptide-MHC tetramer; E6(29-38)-loaded tetramer
Experimental: For transfection, the CD4+ and CD4+/CD8+ cell mixtures were transiently transfected with TCR-encoding plasmids and 48 hours after transfection, cells were assessed by flow cytometry for (1) binding of the target peptide in the context of an MHC molecule (HLA:A02:01) by staining with an E6(29-38) peptide- or an E7(11-19) peptide-MHC tetramer reagent, and/or (2) CD8+ independent binding of the target by co-staining the tetramer-labeled cells with an anti-CD8 antibody.

[4] = target: T1, HLA-A2/E6 (29-38) tetramer; test: tetramer staining of clonal T cell line, flow cytometry

B1: modified version of TCR 3 (codon optimized, cysteine modified) (TCR)
TCR alpha: AQKITQTQPGMFVQEKEAVTLDCTYDTSDQSYGLFWYKQPSSGEMIFLIYQGSYDEQNATEGRYSLNFQKARKSANLVISASQLGDSAMYFCAMREGRGFKTIFGAGTRLFVKANIQKPDPAVYQLRDSKSSDKSVCLFTDFDSQTNVSQSKDSDVYITDKCVLDMRSMDFKSNSAVAWSNKSDFACANAFNNSIIPADTFFPSPESSCDVKLVEKSFETDTNLNFQNLSVIGFRILLLKVAGFNLLMTLRLWSS
TCR beta: GAGVSQSPRYKVAKRGQDVALRCDPISGHVSLFWYQQALGQGPEFLTYFQNEAQLDKSGLPSDRFFAERPEGSVSTLKIQRTQQEDSAVYLCASSHLAGFTGELFFGEGSRLTVLEDLKNVFPPEVAVFEPSEAEISHTQKATLVCLATGFYPDHVELSWWVNGKEVHSGVCTDPQPLKEQPALNDSRYCLSSRLRVSATFWQNPRNHFRCQVQFYGLSENDEWTQDRAKPVTQIVSAEAWGRADCGFTSESYQQGVLSATILYEILLGKATLYAVLVSALVLMAMVKRKDSRG
[1]
  % CD8+/IC IFNγ+; transduced primary CD8+ T cells with T2 cells pulsed with 10 uM E7(11-19) peptide (control peptide), E:T 10:1, 4 h: 2.51%
[2]
  % CD8+/IC IFNγ+; transduced primary CD8+ T cells with T2 cells pulsed with 10 uM E6(29-38) peptide, E:T 10:1, 4 h: 95.1%

B2: modified version of TCR 8 (codon optimized, cysteine modified) (TCR, V domains shown)
V domain 1: KQEVTQIPAALSVPEGENLVLNCSFTDSAIYNLQWFRQDPGKGLTSLLLIQSSQREQTSGRLNASLDKSSGRSTLYIAASQPGDSATYLCAVRPLGNTPLVFGKGTRLSVIA
V domain 2: KVTQSSRYLVKRTGEKVFLECVQDMDHENMFWYRQDPGLGLRLIYFSYDVKMKEKGDIPEGYSVSREKKERFSLILESASTNQTSMYLCASSLWGASTDTQYFGPGTRLTVLE
[1]
  % CD8+/IC IFNγ+; transduced primary CD8+ T cells with T2 cells pulsed with 10 uM E7(11-19) peptide (control peptide), E:T 10:1, 4 h: 11.4%
[2]
  % CD8+/IC IFNγ+; transduced primary CD8+ T cells with T2 cells pulsed with 10 uM E6(29-38) peptide, E:T 10:1, 4 h: 95%

B3: modified version of TCR 9 (codon optimized, cysteine modified) (TCR)
TCR alpha: AQKITQTQPGMFVQEKEAVTLDCTYDTSDPSYGLFWYKQPSSGEMIFLIYQGSYDQQNATEGRYSLNFQKARKSANLVISASQLGDSAMYFCAMRTAGGTSYGKLTFGQGTILTVHPNIQNPDPAVYQLRDSKSSDKSVCLFTDFDSQTNVSQSKDSDVYITDKCVLDMRSMDFKSNSAVAWSNKSDFACANAFNNSIIPEDTFFPSPESSCDVKLVEKSFETDTNLNFQNLSVIGFRILLLKVAGFNLLMTLRLWSS
TCR beta: NAGVTQTPKFRVLKTGQSMTLLCAQDMNHEYMYWYRQDPGMGLRLIHYSVGEGTTAKGEVPDGYNVSRLKKQNFLLGLESAAPSQTSVYFCASSYFGTAYEQYFGPGTRLTVTEDLKNVFPPEVAVFEPSEAEISHTQKATLVCLATGFYPDHVELSWWVNGKEVHSGVCTDPQPLKEQPALNDSRYCLSSRLRVSATFWQNPRNHFRCQVQFYGLSENDEWTQDRAKPVTQIVSAEAWGRADCGFTSESYQQGVLSATILYEILLGKATLYAVLVSALVLMAMVKRKDSRG
[3]
  % cells in E6 tet+/CD8+ quadrant: 42.5%
  % cells in E6 tet+/CD8- quadrant: 0.051%
  % cells in E6 tet-/CD8+ quadrant: 55.6%
  % cells in E6 tet-/CD8- quadrant: 1.89%
[1]
  % CD8+/IC IFNγ+; transduced primary CD8+ T cells with T2 cells pulsed with 10 uM E7(11-19) peptide (control peptide), E:T 10:1, 4 h: 19.5%
[2]
  % CD8+/IC IFNγ+; transduced primary CD8+ T cells with T2 cells pulsed with 10 uM E6(29-38) peptide, E:T 10:1, 4 h: 91.1%

B4: TCR 10 (native, expressed by clonal T cell line) (TCR, V domains shown)
V domain 1: RKEVEQDPGPFNVPEGATVAFNCTYSNSASQSFFWYRQDCRKEPKLLMSVYSSGNEDGRFTAQLNRASQYISLLIRDSKLSDSATYLCVVNFPSRGAGGTSYGKLTFGQGTILTVHP
V domain 2: DVKVTQSSRYLVKRTGEKVFLECVQDMDHENMFWYRQDPGLGLRLIYFSYDVKMKEKGDIPEGYSVSREKKERFSLILESASTNQTSMYLCASSLSLTGNYGYTFGSGTRLTVVE
[4]
  binding result: binds
